# According to PMC9426568, “Glucose-1,6-Bisphosphate, a Key Metabolic Regulator, Is Synthesized by a Distinct Family of α-Phosphohexomutases Widely Distributed in Prokaryotes” (mBio, 2022):
# B1: Slr1334 (Synechocystis sp. PCC 6803 substr. Kazusa) (protein)
# chain: MVYTPAPIKFGTDGWRGVIAAEFTFERVVLVAAAAAQVLAAEFGSSGREHRLIVGYDRRFMAEQFALLVAQTVQELGFEVWLSESYAPTPAFSWAAHHENALGALVLTASHNPANYLGLKVKGAFGGSVGSDVTEKIEAQLQNSLPQPQAGGSLQYFDPWPSYCQGLQAKVNVQPIREAVQQGKLRVFADVMHGAAASGLERLLGCPIDEINGDRDPLFGGASPEPLPKYVPKLLAALQTAAKAGGPELRVGLIFDGDADRIAAVDGQGNFLSSQGLIPILIYHLATQKGLQGEIVKTVSGSDLIPKLAELYGIPLTETAIGYKYIADRMLTSPVLIGGEESGGIGYGGHIPERDALLSALYVLETVVQSQQDISEQYGRLQEKVCFVSEYDRIDLPLASMDVRTALVQTLNENPLTAIAGEQVTDLLTTDGYKFRMAGGGWLLIRFSGTEPLLRLYCEAPTSSRVQTVLHWAKDWANGVTPAKPAQSSH
# notes: recombinant, expressed in E. coli Rosetta-gami (DE3), purified
# B2: Sll0726 (Synechocystis sp. PCC 6803 substr. Kazusa) (protein)
# chain: MSKPLIAALHFLQFLYMTSRINPLAGQHPPADSLLDVAKLLDDYYRQQPDPENPAQLVSFGTSGHRGSALNGTFNEAHILAVTQAVVDYRQAQGITGPLYMGMDSHALSEPAQKTALEVLAANQVETFLTTATDLTRFTPTPAVSYAILTHNQGRKEGLADGIIITPSHNPPTDGGFKYNPPSGGPAEPEATQWIQNRANELLKNGNKTVKRLDYEQALKATTTHAHDFVTPYVAGLADIIDLDVIRSAGLRLGVDPLGGANVGYWEPIAAKYNLNISLVNPGVDPTFKFMTLDWDGKIRMDCSSPYAMASLVKIKDHYDIAFGNDTDGDRHGIVTPSVGLMNPNHFLSVAIWYLFSQRQQWSGLSAIGKTLVSSSMIDRVGAMINRQVYEVPVGFKWFVSGLLDGSFGFGGEESAGASFLKKNGTVWTTDKDGTIMDLLAAEITAKTGKDPGLHYQDLTAKLGNPIYQRIDAPATPAQKDRLKKLSPDDVTATSLAGDAITAKLTKAPGNQAAIGGLKVTTAEGWFAARPSGTENVYKIYAESFKDEAHLQAIFTEAEAIVTSALG
# notes: recombinant, Strep-tagged, expressed in E. coli Rosetta-gami (DE3), purified
# Key:
# Sll0726 = target: T1, Sll0726 (Synechocystis sp. PCC 6803, UniProt P74643); assay: G6PDH-coupled PGM assay, NADPH at […] nm; type: biochemical; conditions: inhibitor, 100 μM, varied Glc-1P, without Glc-1,6-BP; 10 mM MgCl2, pH 7.5, 30°C
# T1 construct: gene pgm; recombinant, Strep-tagged, expressed in E. coli Rosetta-gami (DE3), purified
# T1 sequence (P74643 1-567): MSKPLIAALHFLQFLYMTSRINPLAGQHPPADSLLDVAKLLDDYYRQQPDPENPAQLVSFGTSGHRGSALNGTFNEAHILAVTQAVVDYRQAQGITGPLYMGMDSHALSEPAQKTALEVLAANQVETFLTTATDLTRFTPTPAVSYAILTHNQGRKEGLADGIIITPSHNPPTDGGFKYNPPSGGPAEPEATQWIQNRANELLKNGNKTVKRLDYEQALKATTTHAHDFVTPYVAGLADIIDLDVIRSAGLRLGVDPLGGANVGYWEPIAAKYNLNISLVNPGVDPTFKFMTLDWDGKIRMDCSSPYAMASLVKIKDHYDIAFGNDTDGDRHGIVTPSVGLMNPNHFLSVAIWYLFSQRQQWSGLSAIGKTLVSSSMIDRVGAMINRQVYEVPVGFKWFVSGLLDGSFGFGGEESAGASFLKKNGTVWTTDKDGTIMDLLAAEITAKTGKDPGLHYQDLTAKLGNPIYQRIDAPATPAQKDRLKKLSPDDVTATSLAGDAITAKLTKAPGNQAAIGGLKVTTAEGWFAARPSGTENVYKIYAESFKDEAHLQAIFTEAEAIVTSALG
# purified protein [1] = substrate: O=P(O)(O)O[C@H]1O[C@H](CO)[C@@H](O)[C@H](O)[C@H]1O; assay: purified protein; type: biochemical, Synechocystis sp. PCC 6803; conditions: with 60 μM Glc-1,6-BP (activator), 10 mM MgCl2, 150 mM KCl, HEPES-KOH pH 7.5, 30°C
# purified protein [2] = substrate: O=P(O)(O)OC[C@H]1O[C@H](OP(=O)(O)O)[C@H](O)[C@@H](O)[C@@H]1O; assay: purified protein; type: biochemical, Synechocystis sp. PCC 6803; conditions: co-substrate 0.5 mM Frc-6P, 10 mM MgCl2, 150 mM KCl, HEPES-KOH pH 7.5, 30°C, lowest measurable concentration already saturating
Molecule,"G6PDH-coupled PGM assay, NADPH at 340 nm (Sll0726)",Km (purified protein [1]) [µM],kcat (purified protein [1]) [s⁻¹],kcat/Km (purified protein [1]) [M⁻¹ s⁻¹],kcat (purified protein [2]) [s⁻¹],kcat/Km (purified protein [2]) [M⁻¹ s⁻¹]
"O=P(O)(O)OC[C@H]1OC(O)(COP(=O)(O)O)[C@@H](O)[C@@H]1O (stereo partly drawn) [Frc-1,6-BP]","effect of different concentrations of Frc-1,6-BP on Sll0726 and observed major inhibition",–,–,–,–,–
B1,–,90 ± 20,14.4 ± 0.7,158000,1.2 ± 0.03,600000
B2,–,190 ± 40,415 ± 30.6,3.04e+06,–,–
